One data set relates to Sw1990 tumors. In words: In vivo blocking assay of Cy5‐RWY by unlabeled peptides. To be noted: i.v. 6 nmol Cy5‐RWY together with 6 μmol unlabeled peptide; mice bearing Sw1990 tumors. The procedure: FIGURE 1 Increased and poorer prognosis of integrin α6 in PDAC and the optimization of a peptide targeting integrin α6. […] D, The binding affinities of seven Ala‐mutated peptides were analyzed by ELISA. E, The in vivo blocking assays were performed via intravenous injection of 6 nmol of Cy5‐RWY together with 6 μmol of the unlabeled RWY peptide, or its scrambled peptide or a set of its alanine‐scanning mutant peptides into mice bearing Sw1990 tumors. […] F and G, Sw1990 cells were incubated with Cy5‐RWY and Cy5‐S5 at 37°C for 30 min, and the integrin α6‐binding affinities of Cy5‐RWY and Cy5‐S5 were analyzed by flow cytometric analysis (F); the fluorescence intensity of the S5 group presented as relative (1.41 ± 0.03) fold over RWY, indicating a higher tumor cell‐binding ability of S5. H and I To further investigate the in vivo tumor‐binding ability of the S5 peptide, Cy5‐S5, Cy5‐RWY, and Cy5‐CG7C (negative control) were synthesized and used in NIRF.

In a further data set the target is T1, integrin α6 (Homo sapiens, UniProt P23229).
T1 sequence (P23229 24-1130): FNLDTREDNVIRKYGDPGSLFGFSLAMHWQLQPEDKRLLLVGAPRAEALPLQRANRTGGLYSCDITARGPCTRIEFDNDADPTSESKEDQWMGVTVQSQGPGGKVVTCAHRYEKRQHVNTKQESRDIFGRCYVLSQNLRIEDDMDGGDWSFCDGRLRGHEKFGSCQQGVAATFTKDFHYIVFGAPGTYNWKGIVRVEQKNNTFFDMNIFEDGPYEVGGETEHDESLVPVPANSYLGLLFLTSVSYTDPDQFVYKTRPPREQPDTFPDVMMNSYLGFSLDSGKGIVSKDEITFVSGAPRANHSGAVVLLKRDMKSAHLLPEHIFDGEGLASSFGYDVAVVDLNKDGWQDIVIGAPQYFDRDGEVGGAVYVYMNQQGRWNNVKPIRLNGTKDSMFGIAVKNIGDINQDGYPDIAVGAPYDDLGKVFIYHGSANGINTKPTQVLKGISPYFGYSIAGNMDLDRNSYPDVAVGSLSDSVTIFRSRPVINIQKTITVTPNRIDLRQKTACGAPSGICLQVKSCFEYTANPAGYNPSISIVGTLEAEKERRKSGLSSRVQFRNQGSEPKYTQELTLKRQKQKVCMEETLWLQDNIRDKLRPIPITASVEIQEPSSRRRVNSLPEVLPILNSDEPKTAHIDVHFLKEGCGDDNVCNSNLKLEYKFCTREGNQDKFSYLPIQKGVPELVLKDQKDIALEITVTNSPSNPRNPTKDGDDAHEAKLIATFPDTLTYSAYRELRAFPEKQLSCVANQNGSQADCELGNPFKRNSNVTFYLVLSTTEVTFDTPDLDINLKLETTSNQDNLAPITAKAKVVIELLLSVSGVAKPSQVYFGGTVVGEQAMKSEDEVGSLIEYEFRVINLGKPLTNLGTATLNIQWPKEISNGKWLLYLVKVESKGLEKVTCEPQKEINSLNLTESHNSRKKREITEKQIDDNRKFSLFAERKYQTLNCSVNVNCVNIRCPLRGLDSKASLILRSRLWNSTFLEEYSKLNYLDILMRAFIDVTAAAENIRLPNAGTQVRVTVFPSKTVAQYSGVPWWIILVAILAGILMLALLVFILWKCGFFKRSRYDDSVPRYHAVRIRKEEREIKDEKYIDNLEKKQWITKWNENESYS
Briefly: Binding of Ala-mutated peptides by ELISA (alanine scanning of RWY). As to conditions: relative to RWY peptide; Figure 1D,E (ELISA and in vivo blocking). An excerpt: We selected integrin α6 as the target of PDAC as it was overexpressed in pancreatic cancer cells ^4 , ^5 and cancerous tissue of patients with PDAC ^4 , ^6 , ^7 with an overexpression rate up to 92%. ^4 Increased integrin α6 levels were associated with stronger PDAC cell invasiveness ^5 and poorer prognosis for patients. ^6 , ^7 Furthermore, the integrin α6β4 dimer was overexpressed in PanIN even at a stage as early as PanIN 1A. ^4 Here, we confirmed that integrin α6 was overexpressed in human PDAC (Figure 1A,B) and increased integrin α6 had poorer prognosis for PDAC patients (Figure 1C). Recently, a peptide CRWYDENAC (dubbed RWY) targeting integrin α6 has been identified ^8 and employed for nanotherapeutics of nasopharyngeal carcinoma ^8 and for PET imaging of hepatocellular carcinoma by our team. ^9 Here, we used the Ala scanning mutagenesis to modify the RWY peptide. R, W, and Y were the three key amino acids within the RWY peptide, since their replacement by an alanine reduced the cellular binding ability of this peptide, both in vitro and in vivo. […]
FIGURE 1 Increased and poorer prognosis of integrin α6 in PDAC and the optimization of a peptide targeting integrin α6. […] D, The binding affinities of seven Ala‐mutated peptides were analyzed by ELISA. […]
For orientation: In an ELISA, binding on a coated surface is turned into a signal by an enzyme label.

Another data set can be described thus: in vivo. The class given is in vivo, mouse. To be noted: mouse, in vivo, iv. The method, then: (§1) Approximately 3.7 × 10^6 Bq (100 μCi) of ^18F‐S5 was intravenously injected to a mouse for PET imaging, and 2.5 mmol/kg of gadolinium‐diethylenetriamine pentaacetic acid was injected for enhanced MR imaging. After 120 min postinjection of ^18F‐S5, PET/MR imaging was obtained by using a hybrid 3.0T PET/MR scanner (uPMR 790; UIH, Shanghai, China).
(§2) However, in the PET/MR imaging, ^18F‐S5 produced high PET signals in the possible location of the tumor (Figure 2A). The uptake of ^18F‐S5 in tumor was quantified as 4.34 ± 1.16 %ID/g (a percentage of the injected dose per gram) (n = 5) and the tumor‐to‐muscle ratio was 4.32 ± 0.65 (Figure 2B). […] The overexpression of integrin α6 in the spontaneously developed PDAC tissue was confirmed using immunohistochemistry (Figure 2D). In addition, ^18F‐S5‐PET/MR imaging could also detect metastatic tumors in KPC, where ^18F‐S5 produced high PET signals in both of the PDAC lesions and the metastatic tumors in the abdominal cavity (Figure S4A‐D). […] Immunohistochemical analysis confirmed the formation of PanIN lesions in the pancreas and increased integrin α6 expression in lesion tissues (Figure 2H).
(§3) FIGURE 2 ^18F‐S5 PET/MR imaging in PDAC and PanIN mouse models. A, Representative cross‐sectional images of PET/MR imaging with ^18F‐S5 of KPC mouse (left) and the 3D image (right). B, Quantification of ^18F‐S5 uptake (%ID/g) by KPC mouse in tumor (4.34 ± 1.16), muscle (1.00 ± 0.17), liver (1.24 ± 0.33), and heart (2.38 ± 0.45), respectively. […] D, The development of PDAC in KPC mouse was confirmed by HE staining (left), and increased integrin α6 expression was confirmed by immunohistochemistry (right). E, Representative cross‐sectional images of PET/MR imaging of KC mouse (left) and the MIP reconstructed image (right). F, Quantification of ^18F‐S5 uptake (%ID/g) by KC mouse in PanIN tissue (2.99 ± 0.52), muscle (0.89 ± 0.13), liver (1.31 ± 0.22), and heart (2.43 ± 0.35), respectively. […] H, The development of PanIN in mice was confirmed by HE staining (left), and the overexpression of integrin α6 in the lesion was analyzed using immunohistochemistry (right) (red arrow: PanIN; black arrow: relatively normal pancreatic tissue) (mean ± SD, the difference was evaluated by Student's t‐test, *P < .05, **P < .01, ***P < .001)

The subject of data set [1] is spontaneously developed PDAC. Briefly: in vivo. The class given is in vivo, mouse. To be noted: KPC mouse, PET 120 min postinjection; n = 5, mean ± SD. The method, then: as §1, §2, §3
Another data set has as its system PanIN. Briefly: in vivo. The class given is in vivo, mouse. To be noted: KC mouse, PET 120 min postinjection; mean ± SD. The method, then:
as §1, §2, §3

For data set [2] the following is noted: in vivo. The procedure: as §1

Positions of bridges follow the written chain, without caps; N, C: chain ends. Residues, ends and D or L forms follow the SMILES beside them. *: point of attachment. NOTA = O=C(O)CN1CCN(CC(=O)O)CCN(CC(=O)*)CC1; PEG4 = NCCOCCOCCOCCOCCC(=O)O

Consider two molecules from publication PMC7449243, “An optimized integrin α6‐targeted peptide for positron emission tomography/magnetic resonance imaging of pancreatic cancer and its precancerous lesion” (Clinical and Translational Medicine, 2020).

Consider “CRWYDANAC [S5, peptide …, alanine substitution of E in RWY]”, for which the “blocking effect on Cy5‐RWY” value with Sw1990 tumors was “highest blocking effect”. Besides, the “enhanced tumor binding ability” value on integrin α6 is recorded as “approximately 1.5 fold”.

Take `C[C@@H]1NC(=O)[C@H](CC(N)=O)NC(=O)[C@H](C)NC(=O)[C@H](CC(=O)O)NC(=O)[C@H](Cc2ccc(O)cc2)NC(=O)[C@H](Cc2c[nH]c3ccccc23)NC(=O)[C@H](CCCNC(=N)N)NC(=O)[C@@H](NC(=O)CCOCCOCCOCCOCCNC(=O)CN2CCN(CC(=O)O)CCN(CC(=O)O)CC2)CSSC[C@@H](C(=O)O)NC1=O` [^18F‐S5] ({NOTA-PEG4}-CRWYDANAC-OH; disulfide 1-9 (inferred); N-terminus and C-terminus assumed): the tissue uptake – broadly, the percentage of the injected dose found per gram of tissue – at 2 h amounted to 2.43 ± 0.35 %ID/g in “in vivo” (KC (LSL-Kras^G12D/+; Pdx1-Cre), uptake in heart); 1.31 ± 0.22 %ID/g in the data set “in vivo” (KC (LSL-Kras^G12D/+; Pdx1-Cre), uptake in liver); 0.89 ± 0.13 %ID/g in the data set “in vivo” (KC (LSL-Kras^G12D/+; Pdx1-Cre), uptake in muscle); 2.38 ± 0.45 %ID/g in the data set “in vivo” (KPC (LSL-Kras^G12D/+; Pdx1-Cre; Trp53^fl/fl), uptake in heart); 1.24 ± 0.33 %ID/g in “in vivo” (KPC (LSL-Kras^G12D/+; Pdx1-Cre; Trp53^fl/fl), uptake in liver); 1 ± 0.17 %ID/g in “in vivo” (KPC (LSL-Kras^G12D/+; Pdx1-Cre; Trp53^fl/fl), uptake in muscle). Also, the uptake in tumor in data set [1] worked out at 4.34 ± 1.16 %ID/g. For the same molecule, the “uptake in PanIN tissue” value with PanIN is given as 2.99 ± 0.52 %ID/g. Besides, in data set [2], the “uptake in tumor tissues compared with other tissues and organs” value was “the highest among all collected tissues and organs except for the kidney”.
